One assay addresses T1, human FAP (human, UniProt Q12884 1-760).
T1 construct: also called hu FAP
Kind of assay: flow cytometry, NIH/3T3-huFAP clone 19 cells. On the procedure:
(§1) Briefly, suspension cells were harvested, counted, checked for viability and re-suspended at 1 million cells per ml in FACS buffer (PBS with 0.1% BSA). […] The staining was fixed for 20 min at 4° C. in the dark, using 75 μl of 1% PFA in FACS buffer per well.
(§2) Fluorescence was analyzed by FACS using a FACS Fortessa (Software FACS Diva). Binding curves and EC₅₀ values were obtained using GraphPadPrism 7.
In general terms: In flow cytometry, cells or beads pass a laser one at a time.

Assay [1] addresses T2, cynomolgus ICOS (cynomolgus, UniProt Q9Y6W8 21-195 (human entry)).
T2 chain: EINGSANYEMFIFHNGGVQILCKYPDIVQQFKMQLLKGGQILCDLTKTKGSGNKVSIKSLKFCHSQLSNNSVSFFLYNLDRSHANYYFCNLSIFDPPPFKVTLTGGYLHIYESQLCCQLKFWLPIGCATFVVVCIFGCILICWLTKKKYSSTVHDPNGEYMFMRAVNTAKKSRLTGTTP
Kind of assay: flow cytometry, activated cynomolgus PBMCs, CD4+ subset. On the procedure:
as §1
(§3) Briefly, cynomolgus PBMCs were activated for 48 hours using Dynabeads™ Human T-Activator CD3/CD28 (Thermo Fischer #11131D) according to manufacturer instruction and stored in RPMI1640 medium containing 10% FCS and 1% Glutamax (Gibco 35050061) at 37° C., in a humidified incubator until subsequent binding experiment was performed, as described above.

The target of assay [2] is T3, murine FAP (murine, UniProt P97321 26-761, limits assumed).
T3 construct: also called mouse FAP
Kind of assay: flow cytometry, % positive cells; cells bearing murine FAP not given.

The target of assay [3] is T2, cynomolgus ICOS. Kind of assay: flow cytometry, activated cynomolgus PBMCs, CD8+ subset. On the procedure:
as §1, §3

In assay [4] the target is T4, human ICOS (human, UniProt Q9Y6W8 21-199).
T4 construct: The cell that carries it is named under assay; also called huICOS; CD278
T4 sequence: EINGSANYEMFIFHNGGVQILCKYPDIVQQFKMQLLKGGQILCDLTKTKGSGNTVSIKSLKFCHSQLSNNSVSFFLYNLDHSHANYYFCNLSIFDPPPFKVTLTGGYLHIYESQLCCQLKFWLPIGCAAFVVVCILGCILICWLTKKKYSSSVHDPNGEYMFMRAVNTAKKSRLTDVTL
Description: flow cytometry, CHO cells expressing human ICOS. On the procedure: as §1, §2

For assay [5], the target named is T3, murine FAP. Description: flow cytometry, cells carrying murine FAP not told.
The target in assay [6] is T2, cynomolgus ICOS. Description: flow cytometry, activated cynomolgus PBMCs, CD4+ subset. On the procedure: as §1, §3
The next assay addresses T5, murine ICOS (murine, UniProt Q9WVS0 21-200).
T5 sequence: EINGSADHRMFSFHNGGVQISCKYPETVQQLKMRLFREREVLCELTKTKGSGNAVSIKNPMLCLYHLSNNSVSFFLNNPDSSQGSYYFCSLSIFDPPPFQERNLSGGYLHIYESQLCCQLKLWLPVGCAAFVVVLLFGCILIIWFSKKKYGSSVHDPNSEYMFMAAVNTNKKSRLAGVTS
Kind of assay: flow cytometry, pre-activated murine splenocytes (figure legend: recombinant CHO cells).

Assay [7] has as its target T2, cynomolgus ICOS. Kind of assay: flow cytometry, activated cynomolgus PBMCs, CD8+ subset. On the procedure: as §1, §3
The target in assay [8] is T4, human ICOS. Description: flow cytometry on CHO cells stably expressing human ICOS, AF647-labelled anti-human Fc secondary antibody, MFI. On the procedure:
as §1, §2

A word on the EC50: it is the midpoint of the concentration-response curve. In general, EC50 (read off the curve) refers to the concentration at which the effect is half-maximal. Lower therefore signals an effect from little substance.

B1: Molecule 9, bispecific 2+1 anti-ICOS (1167)/anti-FAP (4B9) huIgG1 P329GLALA kih (bispecific antibody)
heavy 1: EVRLLESGGGLVQPGGSLRLSCAASGFTFNTYAVHWVRQAPGKGLEWVSGIGGSGVRTYYADSVKGRLTISRDNSKNTLYLQMNSLRAEDTAIYFCAKDIYVADFTGYAFDIWGQGTMVTVSSASTKGPSVFPLAPSSKSTSGGTAALGCLVKDYFPEPVTVSWNSGALTSGVHTFPAVLQSSGLYSLSSVVTVPSSSLGTQTYICNVNHKPSNTKVDKKVEPKSCDKTHTCPPCPAPEAAGGPSVFLFPPKPKDTLMISRTPEVTCVVVDVSHEDPEVKFNWYVDGVEVHNAKTKPREEQYNSTYRVVSVLTVLHQDWLNGKEYKCKVSNKALGAPIEKTISKAKGQPREPQVCTLPPSRDELTKNQVSLSCAVKGFYPSDIAVEWESNGQPENNYKTTPPVLDSDGSFFLVSKLTVDKSRWQQGNVFSCSVMHEALHNHYTQKSLSLSPGGGGGSGGGGSGGGGSGGGGSEIVLTQSPGTLSLSPGERATLSCRASQSVTSSYLAWYQQKPGQAPRLLINVGSRRATGIPDRFSGSGSGTDFTLTISRLEPEDFAVYYCQQGIMLPPTFGQGTKVEIK
heavy 2: not shown
light: DIQMTQSPSSVSASVGDRVTITCRASQGINNFLAWYQQKPGKAPKLLIYDASSLQSGVPSRFAGSGSGTDFTLTISSLQPEDFATYYCQQYNFYPLTFGGGTMVEIKRTVAAPSVFIFPPSDRKLKSGTASVVCLLNNFYPREAKVQWKVDNALQSGNSQESVTEQDSKDSTYSLSSTLTLSKADYEKHKVYACEVTHQGLSSPVTKSFNRGEC
notes: also called FAP-ICOS (2+1)
For the molecule B1, the EC50 is 5.73 nM with human FAP; 5.5 nM with cynomolgus ICOS [1]; 10.5 nM with cynomolgus ICOS [3]; 2.72 nM with human ICOS [4]; 0.505 nM with murine FAP [5]; 5.5 nM with cynomolgus ICOS [6]. Moreover, the EC50 in the assay with murine ICOS is 7.21 nM; with cynomolgus ICOS [7], 10.5 nM. Further, the “EC50 (read off the curve)” value with murine FAP [2] was roughly 0.5 nM; with human ICOS [8] it was roughly 3 nM.

The record behind these values is patent publication US20220098305A1 (Hoffmann-La Roche, published 2022).
